1 variant from PMC6916386 can be followed below.

The labels stand for the following.
B1: Single stranded nucleic acid binding protein (Sbp1), wild type, galactose-inducible with ZZ (protein A) tag, from wild-type yeast R153 [modified: arginine-methylated in yeast … (parent)
chain 1: MSAEIEEATNAVNNLSINDSEQQPRAPTHKTVIDPEDTIFIGNVAHECTEDDLKQLFVEEFGDEVSVEIPIKEHTDGHIPASKHALVKFPTKIDFDNIKENYDTKVVKDREIHIKRARTPGQMQRGGFRGRGGFRGRGGFRGGFRGGYRGGFRGRGNFRGRGGARGGFNGQKREKIPLDQMERSKDTLYINNVPFKATKEEVAEFFGTDADSISLPMRKMRDQHTGRIFTSDSANRGMAFVTFSGENVDIEAKAEEFKGKVFGDRELTVDVAVIRPENDEEEIEQETGSEEKQE
chain 2: MTDETAHPTQSASKQESAALKQTGDDQQESQQQRGYTNYNNGSNYTQKKPYNSNRPHQQRGGKFGPNRYNNRGNYNGGGSFRGGHMGANSSNVPWTGYYNNYPVYYQPQQMAAAGSAPANPIPVEEKSPVPTKIEITTKSGEHLDLKEQHKAKLQSQERSTVSPQPESKLKETSDSTSTSTPTPTPSTNDSKASSEENISEAEKTRRNFIEQVKLRKAALEKKRKEQLEGSSGNNNIPMKTTPENVEEKGSDKPEVTEKTKPAEEKSAEPEVKQETPAEEGEQGEKGQIKEESTPKVLTFAERLKLKKQQKEREEKTEGKENKEVPVQEETKSAIESAPVPPSEQVKEETEVAETEQSNIDESATTPAIPTKSDEAEAEVEAEAGDAGTKIGLEAEIETTTDETDDGTNTVSHILNVLKDATPIEDVFSFNYPEGIEGPDIKYKKEHVKYTYGPTFLLQFKDKLNVKADAEWVQSTASKIVIPPGMGRGNRSRDSGRFGNNSSRGHDFRNTSVRNMDDRANSRTSSKRRSKRMNDDRRSNRSYTSRRDRERGSYRNEEKREDDKPKEEVAPLVPSANRWVPKFKSKKTEKKLAPDGKTELLDKDEVERKMKSLLNKLTLEMFDAISSEILAIANISVWETNGETLKAVIEQIFLKACDEPHWSSMYAQLCGKVVKELNPDITDETNEGKTGPKLVLHYLVARCHAEFDKGWTDKLPTNEDGTPLEPEMMSEEYYAAASAKRRGLGLVRFIGFLYRLNLLTGKMMFECFRRLMKDLTDSPSEETLESVVELLNTVGEQFETDSFRTGQATLEGSQLLDSLFGILDNIIQTAKISSRIKFKLIDIKELRHDKNWNSDKKDNGPKTIQQIHEEEERQRQLKNNSRSNSRRTNNSSNRHSFRRDAPPASKDSFITTRTYSQRNSQRAPPPKEEPAAPTSTATNMFSALMGESDDEE

The assay covers variants of B1. The experiment in a line: glutathione pull-down, PAP blot band quantified. The settings on record: with eukaryotic translation initiation factor 4G1 fused to GST (eIF4G1-GST) [yeast]; purified eIF4G1-GST incubated with yeast lysate; n = 3; parent: 100; read off a plot.
chain 1 MSAEIEEATNAVNNLSINDSEQQPRAPTHKTVIDPEDTIFIGNVAHECTEDDLKQLFVEEFGDEVSVEIPIKEHTDGHIPASKHALVKFPTKIDFDNIKENYDTKVVKDREIHIKRARTPGQMQAGGFAGAGGFAGAGGFAGGFAGGYAGGFAGAGNFAGAGGAAGGFNGQKREKIPLDQMERSKDTLYINNVPFKATKEEVAEFFGTDADSISLPMRKMRDQHTGRIFTSDSANRGMAFVTFSGENVDIEAKAEEFKGKVFGDRELTVDVAVIRPENDEEEIEQETGSEEKQE [chain 1 R125A R129A R131A R135A R137A R141A R145A R149A R153A R155A R159A R161A R165A]: the percent of parent stood at 25 % binding.
